B1: E188K|H125Y, Q88HV5 (parent)
chain: MPFQQGLLATPVPAHARHLFFTLQSPEALPAALDALLPQVDGKQLLLGVGAPLAKALGREIPGLRPFPLLDAAVENPSTQHALWLWLRGDERGDLLLRTQALEQALAPALSLADSVDGFLHRGGHDLTGYEDGTENPTDEEAVQAAIAADGSSFAAFQLWKHDLQYFKSLPQADQDNIIGRRLSDNEELDDAPASAHVKRTAQESFEPEAFMVRRSVSWADQRGAGLAFVALGKSFEAFEVQLRRMSGLEDGIIDGLYRFSRPLTGGYYWCPPMSETGVDLSPLLRA
B2: Chemotaxis protein CheY, P0AE67 (parent)
chain: MADKELKFLVVDDFSTMRRIVRNLLKELGFNNVEEAEDGVDALNKLQAGGYGFVISDWNMPNMDGLELLKTIRADGAMSALPVLMVTAEAKKENIIAAAQAGASGYVVKPFTAATLEEKLNKIFEKLGM
B3: Guanyl-specific ribonuclease T1, P00651 (parent)
chain: MMYSKLLTLTTLLLPTALALPSLVERACDYTCGSNCYSSSDVSTAQAAGYQLHEDGETVGSNSYPHKYNNYEGFDFSVSSPYYEWPILSSGDVYSGGSPGADRVVFNENNQLAGVITHTGASGNNFVECT

Variants of: B1
Conditions: Pseudomonas putida (strain ATCC 47054 / DSM 6125 / CFBP 8728 / NCIMB 11950 / KT2440); pH 7.6; Fluorescence spectroscopy; whole UniProt chain shown

| Variant | Tm [°C] |
| --- | --- |
| MPFQQGLLATPVPAHARHLFFTLQSPEALPAALDALLPQVDGKQLLLGVGAPLAKALGREIPGLRPFPLLDAAVENPSTQHALWLWLRGDERGDLLLRTQALEQALAPALSLADSVDGFLHRGGYDLTGYEDGTENPTDEEAVQAAIAADGSSFAAFQLWKHDLQYFKSLPQADQDNIIGRRLSDNEKLDDAPASAHVKRTAQESFEPEAFMVRRSVSWADQRGAGLAFVALGKSFEAFEVQLRRMSGLEDGIIDGLYRFSRPLTGGYYWCPPMSETGVDLSPLLRA [E188K H125Y] | 61 |
| MPFQQGLLATPVPAHARHLFFTLQSPEALPAALDALLPQVDGKQLLLGVGAPLAKALGREIPGLRPFPLLDAAVENPSTQHALWLWLRGDERGDLLLRTQALEQALAPALSLADSVDGFLHRGGYDLTGYEDGTENPTDEEVVQAAIAADGSSFAAFQLWKHDLQYFKSLPQADQDNIIGRRLSDNEKLDDAPASAHVKRTAQESFEPEAFMVRRSVSWADQRGAGLAFVALGKSFEAFEVQLRRMSGLEDGIIDGLYRFSRPLTGGYYWCPPMSETGVDLSPLLRA [E188K A142V H125Y] | 59 |

Variants of: B2
Conditions: Escherichia coli (strain K12); pH 7; 25 °C; Urea; Fluorescence; Cacodylate 100 mM; structure 1CEY; whole UniProt chain shown

| Variant | ddG of mutation (higher = less stable) [kcal/mol] | unfolding free energy [kcal/mol] |
| --- | --- | --- |
| MADKELKFLVVADFSTMRRIVRNLLKELGFNNVEEAEDGVDALNKLQAGGYGFVISDWNMPNMDGLELLKTIRADGAMSALPVLMVTAEAKKENIIAAAQAGASGYVVKPFTAATLEEKLNKIFEKLGM [D12A] | -2.5 | 8.1 |
| MADKELKFLVVDDFSTMRRIVRNLLKELGFNNVEEAEDGVDALNKLQAGGYGFVISAWNMPNMDGLELLKTIRADGAMSALPVLMVTAEAKKENIIAAAQAGASGYVVKPFTAATLEEKLNKIFEKLGM [D57A] | -3.3 | 8.9 |
| MADKELKFLVVDAFSTMRRIVRNLLKELGFNNVEEAEDGVDALNKLQAGGYGFVISDWNMPNMDGLELLKTIRADGAMSALPVLMVTAEAKKENIIAAAQAGASGYVVKPFTAATLEEKLNKIFEKLGM [D13A] | -2.7 | 8.3 |

Variants of: B3
Conditions: Aspergillus oryzae (strain ATCC 42149 / RIB 40); pH 7; 48.6 °C; Thermal; Fluorescence; MOPS 30 mM; structure 1RN1; whole UniProt chain shown

| Variant | ddG of mutation (higher = less stable) [kcal/mol] |
| --- | --- |
| MMYSKLLTLTTLLLPTALALPSLVERACDYTCGSNCYSSSDVSTAQAAGYKLHEDGETVGSNSYPHKYNNYEGFDFSVSSPYYAWPILSSGDVYSGGSPGADRVVFNENNQLAGVITHTGASGNNFVECT [Q51K E84A] | -0.06 |
| MMYSKLLTLTTLLLPTALALPSLVERACDYTCGSNCYSSSDVSTAQAAGYKLHEDGETVGSNSYPHKYNNYEGFDFSVSSPYYEWPILSSGDVYSGGSPGADRVVFNENNQLAGVITHTGASGNNFVECT [Q51K] | -0.93 |

Same assay, conditions: Aspergillus oryzae (strain ATCC 42149 / RIB 40); pH 7; Thermal; Fluorescence; MOPS 30 mM; structure 1RN1; whole UniProt chain shown

| Variant | Tm [°C] | change of melting temperature, mutant - wild type (higher = more stable) [°C] | unfolding enthalpy (van 't Hoff) [kcal/mol] |
| --- | --- | --- | --- |
| MMYSKLLTLTTLLLPTALALPSLVERACDYTCGSNCYSSSDVSTAQAAGYKLHEDGETVGSNSYPHKYNNYEGFDFSVSSPYYAWPILSSGDVYSGGSPGADRVVFNENNQLAGVITHTGASGNNFVECT [Q51K E84A] | 48.8 | -0.5 | 93 |
| MMYSKLLTLTTLLLPTALALPSLVERACDYTCGSNCYSSSDVSTAQAAGYKLHEDGETVGSNSYPHKYNNYEGFDFSVSSPYYEWPILSSGDVYSGGSPGADRVVFNENNQLAGVITHTGASGNNFVECT [Q51K] | 51.7 | 3.4 | 107 |

Same assay, conditions: Aspergillus oryzae (strain ATCC 42149 / RIB 40); pH 7.4; 25 °C; Urea; Fluorescence; Sodium acetate 50 mM; reversible: yes; structure 1RN1; whole UniProt chain shown

| Variant | denaturant m value [kcal/mol/M] | denaturant midpoint (higher = more stable) [M] | unfolding free energy [kcal/mol] |
| --- | --- | --- | --- |
| MMYSKLLTLTTLLLPTALALPSLVERACDYTCGSNCYSSSDVSTAQGAGYQLHEDGETVGSNSYPHKYNNYEGFDFSVSSPYYEWPILSSGDVYSGGSPGADRVVFNENNQLAGVITHTGASGNNFVECT [A47G] | 1.3 | 5.5 | 7.1 |

Same assay, conditions: Aspergillus oryzae (strain ATCC 42149 / RIB 40); pH 7; 25 °C; Thermal; CD; MOPS 30 mM; structure 1RN1; whole UniProt chain shown

| Variant | ddG of mutation (higher = less stable) [kcal/mol] |
| --- | --- |
| MMYSKLLTLTTLLLPTALALPSLVERACDYTCGSNCYSSSDVSTAQAAGYQLHEDGETVGSNSYPHKYNNYEGFHFSVSSPYYEWPILSSGDVYSGGSPGADRVVFNENNQLAGVITHTGASGNNFVECT [D75H] | -1.1 |

Same assay, conditions: Aspergillus oryzae (strain ATCC 42149 / RIB 40); pH 7; Thermal; Absorbance; Sodium cacodylate 10 mM; reversible: yes; structure 1RN1; whole UniProt chain shown

| Variant | Tm [°C] | change of melting temperature, mutant - wild type (higher = more stable) [°C] |
| --- | --- | --- |
| MMYSKLLTLTTLLLPTALALPSLVERACDYTCGSNCYSSSDVSTAQAAGYQLHEDGETVGSNSYPHKYNNWEGFDFSVSSPYYEWPILSSGDVYSGGSPGADRVVFNENNQLAGVITHTGASGNNFVECT [Y71W] | 56 | -1.6 |
| MMYSKLLTLTTLLLPTALALPSLVERACDYTCGSNCYSSSDVSTAQAAGYQLHEDGETVGSNSYPHKYNNYEGFDFSVSSPYYEYPILSSGDVYSGGSPGADRVVFNENNQLAGVITHTGASGNNFVECT [W85Y] | 53.4 | -4.2 |

Same assay, conditions: Aspergillus oryzae (strain ATCC 42149 / RIB 40); pH 7; 25 °C; Urea; Fluorescence; MOPS 30 mM; structure 1RN1; whole UniProt chain shown

| Variant | ddG of mutation (higher = less stable) [kcal/mol] | denaturant m value [kcal/mol/M] | denaturant midpoint (higher = more stable) [M] | unfolding free energy [kcal/mol] |
| --- | --- | --- | --- | --- |
| MMYSKLLTLTTLLLPTALALPSLVERACDYTCGSNCYSSSDVSTAQAAGYKLHEDGETVGSNSYPHKYNNYEGFDFSVSSPYYEWPILSSGDVYSGGSPGADRVVFNENNQLAGVITHTGASGNNFVECT [Q51K] | -0.77 | 1.21 | 5.3 | 6.39 |

Same assay, conditions: Aspergillus oryzae (strain ATCC 42149 / RIB 40); pH 7; Thermal; Absorbance; Sodium cacodylate-D2O 100 mM; reversible: yes; structure 1RN1; whole UniProt chain shown

| Variant | Tm [°C] | change of melting temperature, mutant - wild type (higher = more stable) [°C] |
| --- | --- | --- |
| MMYSKLLTLTTLLLPTALALPSLVERACDYTCGSNCYSSSDVSTAQAAGYQLHEDGETVGSNSYPHKYNNYEGFDFSVSSPYYEYPILSSGDVYSGGSPGADRVVFNENNQLAGVITHTGASGNNFVECT [W85Y] | 65 | 20 |

— FireProtDB
